The values below come from patent publication US20060281899A1, “Mutants of biotin binding protein” (priority 2002, published 2006).

Values joined by “and” are separate entries in the source; they are usually repeats but may differ in a detail not shown here. Equal values may be shown once. Read-outs that look alike come from different tables or passages of the source.

For data set [1] the following is noted: cited from earlier work; for ΔTm: change in Tm upon biotin addition, previously published values; for DSC Tm (+biotin) / DSC Tm(−biotin): previously published (Nordlund 2003; Gonzalez 1999).
For data set [2] the following is noted: 2-iminobiotin surface; from Nordlund 2003; read-out: Kd detected from the equilibrium response data; cited from earlier work.
Data set [3] is described as follows: IAsys optical biosensor, affinity of avidin and avidin mutants towards 2-iminobiotin. Format: binding. As for the experimental part:
(§1) Reversibility of biotin binding was measured for avidin and the mutants with an IAsys optical biosensor (Laitinen, O. H. et al., FEBS Lett 461 (1999), 52-8). Protein samples were allowed to bind to a biotin-aminosilane cuvette in PBS containing 1 M NaCl. After the equilibrium was reached, biotin-containing buffer was added and the dissociation of the proteins was monitored. The affinities of the proteins towards 2-iminobiotin were determined with an IAsys optical biosensor (Marttila, A. T. et al. FEBS Lett 441 (1998), 313-7). Biotin-binding activity of the mutants Avd-ci and Avd-ccci after heat treatment was studied with a microtiter plate assay. Protein samples, 5 μg/ml concentration in PBS, were heated for various time periods at 99.9° C. and then chilled on ice. The samples were transferred to a Nunc Maxisorp-plate and incubated at 37° C. for 2 h. The wells were washed three times with PBS-Tween (0.05% v/v). After that the wells were blocked with PBS containing 1% BSA at 37° C. for 30 minutes and washed again with PBS-Tween. Next, biotinylated alkaline phosphatase (Sigma) in PBS, 1% BSA was added and incubated at 37° C. for one hour. Once again, the wells were washed with PBS-Tween and the PNPP substrate in DEA buffer (1 mg/ml) was applied to the wells. The absorbances at 405 nm were measured after incubation for 45 minutes.

Data set [4] in a line: Differential scanning calorimetry of the avidin mutants. The note with it: for Tm: DSC, 100 mM Na-phosphate buffer pH 7.4. Format: physicochemical. As to the method: In order to study the thermal stability of the purified avidin mutants, they were subjected to analysis by differential scanning calorimetry. A Nano II differential scanning calorimeter (Calorimetric Science Corporation, Provo, Utah) was used. […] The reference cell was filled with the same buffer that the sample proteins were dissolved in (100 mM Na-phosphate buffer pH 7.4). The thermograms were recorded as a function of temperature, between 25 and 130° C. at a temperature scan rate of 55.6° C./h. The baselines were subtracted and the transition midpoints (Tm) of the samples were calculated using proprietary software provided by the instrument manufacturer.
On the technique in general: In DSC, transitions show as peaks or steps in heat flow.

For data set [5], the system named is biotinylated alkaline phosphatase. The data set is described as follows: Microtiter plate assay, biotin-binding activity after heat treatment at 99.9° C. The format is physicochemical. The note with it: 99.9° C. for various time periods. As to the method:
as §1, with “After that the wells were blocked with PBS containing 1% BSA at 37° C. for 30 minutes and washed again with PBS-Tween. Next, biotinylated alkaline phosphatase (Sigma) in PBS, 1% BSA was added and incubated at 37° C. for one hour. Once again, the wells were washed with PBS-Tween and the PNPP substrate in DEA buffer (1 mg/ml) was applied to the wells.” left out
Biotin-binding activity of the proteins after heat treatment was studied with a microtiter plate assay (Nordlund, H. R., Laitinen, O. H., Uotila, S. T., Nyholm, T., Hytönen, V. P., Slotte, J. P. & Kulomaa, M. S. (2003) J. Biol. Chem. 278, 2479-2483). […] The absorbencies at 405 nm were measured after incubation for 45 minutes.

Data set [6] can be described thus: Microparticle analysis, BF523-biotin binding of protein-coated particles before and after 95° C. Format: physicochemical. To be noted: 30 minutes at 95° C., BF523-biotin added after treatment (iv). As to the method:
Before the analysis, 3.22 μm microparticles with COOH-group/0.852 nm2 (Bangs laboratories, Fishers, Ind., USA) were covalently coated with biotin-binding proteins. Microparticles (1*108 pcs) were washed twice with H20 by sequential centrifuging (5000 g; 3 min) and aspiration, and resuspended in 200 μl PB buffer (50 mM NaH2PO4-HCl, pH 3.0). A solution of biotin binding protein (50 μl, 1 mg/ml or 3 mg/ml, 50 mM Na-acetate pH 4.0) was added while vortexing. The suspension was incubated for 1 h (500 rpm; 23° C.). Particles were washed with PB and with MES buffer (50 mM, pH 5.5) and suspended in MES buffer (200 μl). […] After the last wash particles were suspended in 100 μl volume and concentration of particles was determined with Multisizer 3 Coulter Counter (Beckman Coulter, Fullerton, Calif., USA). […]
Microparticles (5*106 pcs) were suspended in 900 μl of assay buffer and aliquoted in […] PCR-tubes (i-v; 180 μl/aliquot). […] The samples were measured with ArcDia TPX PlateReader (ArcDia Ltd.) (Soini, E., Meltola, N. J., Soini, A. E., Soukka, J., Soini, J. T. & Hanninen, P. E. (2000) Biochem. Soc. Trans. 28, 70-74). […]
The fluorescence emission efficiencies of the BF523-biotin conjugate (200 nM) was determined before and after the incubation (30 min) at 95° C. […]

Setting [7] is: + biotin, difference in Tm compared to wt avidin + biotin.
The mark [8] stands for this setting: + biotin (biotin:avidin molar ratio 3:1).
Setting [9] is: without biotin, difference in Tm compared to wt avidin.

A word on the ΔTm: it is the shift of the melting midpoint relative to a reference. Usually Kd stands for a measure of binding affinity in units of concentration. The term Tm denotes the temperature at which the thermal transition is half complete. With “Avd-cci: Avidin mutant D86C, I106C with four intermonomeric disulphide bridges (1-4 and 2-3)”, the results for the ΔTm in data set [1], in data set [4] (setting [7]) and in data set [4] (setting [9]) were 43.1 °C, −0.7 °C and −11.1 °C, respectively. In data set [1], the “DSC Tm (+biotin)” value is 117.5 ± 0.1 °C. Moreover, the “DSC Tm(−biotin)” value in data set [1] was 74.4 ± 0.1 °C. The Kd in data set [2] and in data set [3] was 0.094 µM each time. Further, the Tm turned out to be 117.5 ± 0.1 °C in data set [4] (setting [8]) and 74.4 ± 0.1 °C in data set [4] (without biotin).
Take “Avd-ci: Avidin mutant I117C with two intermonomeric disulphide bridges (subunits 1-3 and 2-4)”: the ΔTm in data set [1] is 26.1 °C; in data set [4] (setting [7]), 6.5 °C; in data set [4] (setting [9]) it was 13.1 °C. Besides, the “DSC Tm (+biotin)” value in data set [1] was 124.7 ± 0.5 °C. Besides, the “DSC Tm(−biotin)” value in data set [1] is 98.6 °C and 98.6 ± 0.1 °C. For the same substance, the figures for the Kd in data set [2] and in data set [3] were 0.19 µM and 0.085 µM, respectively. Further, in data set [5], the “biotin-binding activity after heat treatment” value was “remained active, in the sense of binding biotin, longer than the wild-type avidin”. Also, the Tm in data set [4] (setting [8]) came to 124.7 ± 0.5 °C; in data set [4] (without biotin) it was 98.6 ± 0.1 °C. Besides, the “original signal after heat treatment of coated particles” value in data set [6] came to 35%.
Regarding “Avd-nc: Cysteineless avidin mutant C4A, C83Y; intramonomeric disulphide bridges removed”, the shift in melting temperature (ΔTm) in data set [1] is 42.1 °C; in data set [4] (setting [7]), 0.3 °C. In addition, the “DSC Tm (+biotin)” value in data set [1] is 118.5 ± 0.1 °C. Besides, the “DSC Tm(−biotin)” value in data set [1] is 76.4 ± 0.4 °C. The Kd in data set [2] was 0.025 µM; in data set [3] it was 0.19 µM. Besides, the Tm is 118.5 ± 0.1 °C in data set [4] (setting [8]) and 76.4 ± 0.4 °C in data set [4] (without biotin).
For the substance “Streptavidin: Bacterial streptavidin (SEQ ID NO 2), literature values [reference compound]”, in data set [1], the ΔTm was 36.7 °C, the “DSC Tm (+biotin)” value was 112.2 °C and the “DSC Tm(−biotin)” value was 75.5 °C. The ΔH of unfolding in data set [1] (previously published (Gonzalez 1999)) is 150.3 kcal/mol.
